Variants at the floor of the assay were thinned out.
B1: TPR 5TU (parent)
chain: GGAUCUUCUCGAUCUAACAAAAAAGACAAAUCUGCCACAAAGCUUGAGAGCAUCUUCGGAUGCAGAGGCGGCAGCCUUCGGUGGCGCGAUAGCGCCAACGUUCUCAACUAUGACACGCAAAACGCGUGCUCCGUUGAAUGGAGUUUAUCAUG

Variants of: B1
Experiment: polymerase ribozyme fitness, log enrichment relative to wild type (log ratio); higher = more active; in vitro selection for triplet polymerase activity
Outline: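 A heterodimeric triplet polymerase ribozyme had each of its subunits mutagenized by PCR into a library, which was transcribed. One round of in vitro selection, done in triplicate, annealed each library with a biotinylated primer, its partner subunit and triplets, then incubated it frozen at −7 °C before gel excision of extended constructs, streptavidin-bead capture and RT-PCR. Fitness is the logarithm of genotype enrichment relative to wild-type enrichment, based on Illumina sequencing of inputs and outputs and inverse-variance-weighted replicate averages. A base-2 logarithm is used, and genotypes were kept only with ≥10 input reads and ≥1 read per output.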

Row | Variant | polymerase ribozyme fitness (log ratio)
1 | A52U U61G G80C C87G G94U A121U | ≤ -4.2
2 | A52G C108G | ≤ -4.2
3 | U53C C57A C95U A98G U104A | -0.528
4 | A52G C57U C75G A91U C95G C123A | -4.05
5 | A52U C129U | -2.91
6 | A52G G83C C93U | -3.66
7 | A52G U148G | -4.18
8 | C54U A60C C99U | -3.17
9 | C54G G140U | -3.63
10 | C54A G70A | -3.79
11 | C54G C75U G94A | -1.51
12 | C54U A64G C116G U139G | ≤ -4.2
13 | U53A C76G G92A A107C G124U C149A | ≤ -4.2
14 | U53A C95A A120G | -1.57
15 | C54G G83A C96U A110G C132U A142C | ≤ -4.2
16 | C54A G94C G141A | -3.13
17 | A52G C69U G143A | -2.71
18 | C54U G92U | -0.757
19 | C54U G92A | -3
20 | A52G U55A G59C G86U A142C G143C | ≤ -4.2
21 | U53A G136A | -0.321
22 | U53A C99U | -2.58
23 | U53A U55A C96A U127C A138U | ≤ -4.2
24 | C54A U55A U77G A121C A137U | ≤ -4.2

Row | Variant | polymerase ribozyme fitness (log ratio)
25 | U53A C118U U134C G141A U146C | -0.702
26 | U53G G74A C114G | ≤ -4.2
27 | A52G C76A | -0.0301
28 | C54G C75G C87A | ≤ -4.2
29 | U53A C57G G74C C87A C93A C149A | ≤ -4.2
30 | C54U G71A A97U C105U A106C | ≤ -4.2
31 | U53A G83A | -1.64
32 | A52G G141U | 1
33 | U53A G94C | -1.3
34 | U53C C54U C96A A120U | -0.901
35 | U53A U148A | -3.17
36 | U53A U148C | -3.4
37 | U53A C85U A137G A142C | -3.93
38 | C54G C75A | ≤ -4.2
39 | C54G C75U | -1.86
40 | C54G A89U A147C | -2.1
41 | C54G A97G | -0.818
42 | A52G C87U C116G A122C G136U | -2.85
43 | C54U A122U | 0.0261
44 | C54U A60C C75A A91U C96U A97G A107C G136A A137U | ≤ -4.2
45 | A52U G74A G80C C95U A147C | ≤ -4.2
46 | C54A G83U | -1.19
47 | U53A U102G G126A | -3.76
48 | U53A C96G | -2.55

Row | Variant | polymerase ribozyme fitness (log ratio)
49 | U53G G58C C95G A122U | ≤ -4.2
50 | U53C G143U | -2.74
51 | C54U C103A | -2.22
52 | A52U G68A U82G G133U A137C A142C | ≤ -4.2
53 | U53C C72U C132U | -3.52
54 | U53A G81A C99U | -2.36
55 | A52U G80C G126A G133C | ≤ -4.2
56 | C54U C75U G84C A98U A113G C129U | ≤ -4.2
57 | C54U G68U U82A G94A A97C G117A A138C G141A | ≤ -4.2
58 | U53A G59C A60G G84A | -1.76
59 | C54A U56G C95A A120G | -1.33
60 | C54A G86U A110C | ≤ -4.2
61 | C54U A115U | -2.4
62 | C54U C93A A110G A137G G140C | -4.1
63 | A52U C123G | -1.97
64 | U53A G92C U102C | -3.58
65 | C54U G83U | -0.319
66 | C54U G83A | -0.655
67 | C54U C63U G94U G143A | -2.26
68 | U53G G92C C93A | ≤ -4.2
69 | A52G U56A C87A C93A A113G U135A | ≤ -4.2
70 | C54U C57U G100C | ≤ -4.2
71 | U53A C72G C85U U127A | ≤ -4.2
72 | C54A C105G U130C | -2.7

Row | Variant | polymerase ribozyme fitness (log ratio)
73 | C54A U56A C93A A98U A138C U151G | ≤ -4.2
74 | C54U G59C G83A G117U | -0.252
75 | C54A U82C U146C | -0.537
76 | U53A G128C A137C U148G C149G | ≤ -4.2
77 | U53A G94C C105A C118U | ≤ -4.2
78 | U53A G58A C93U C116U | -0.438
79 | A52U G143U U148A | -4.01
80 | C54A C96U A113G | -3.11
81 | U53A U61A A106U C129U | -3.27
82 | C54A U144A | -1.74
83 | C54G C95G | -2.56
84 | U53A G67C C76G G84A C114U | -4.1
85 | C54A A73U C87U | -3.49
86 | A52U | -1.49
87 | A52U A137G | -2.89
88 | U53C G58C C93U C96G G140A | -4.1
89 | U53A U61A C85U A97U C108U | ≤ -4.2
90 | A52U U53A C57A G58C A89U | 0.000593
91 | A52G C72U G81A G86A C103G A122C | ≤ -4.2
92 | C54G G92A C132A | ≤ -4.2
93 | A52U G84C C116U U146G | -4.11
94 | A52G U53G A106C A119U G136U | ≤ -4.2
95 | C54G G84A | -1.74
96 | C54A A64C C85A G92U A121U C125G U134G U139G | ≤ -4.2

Row | Variant | polymerase ribozyme fitness (log ratio)
97 | U53A A73G G86A G92U C95U G143U | ≤ -4.2
98 | C54A C85U C149G G152U | -4.15
99 | C54A C96U | -1.43
100 | U53A C99U U134A | -3.7
101 | U53A C76U | -1.36
102 | A52U U56A G83C G84A C99G A106U U144A | ≤ -4.2
103 | U53G A97G | -1.44
104 | C54G G133C | -2.55
105 | U53A U61C C79G A115U A150U | ≤ -4.2
106 | A52G U56G G86A C95U A142C | ≤ -4.2
107 | C54A U55A | -1.91
108 | A52G G62A C76U U145A | -2.04
109 | C54U G71C C116U G136A U146C | -3.51
110 | C54U C72U A91U C95G A98C C103A A119G A121G | ≤ -4.2
111 | C54U C93U A98G | -1.41
112 | C54U C85G A91U | ≤ -4.2
113 | C54A A91G U104G U127A G152A | ≤ -4.2
114 | C54G C76U U77C C87A G126U | ≤ -4.2
115 | U53G C54A | -2.07
116 | U53A A73C | -3.99
117 | A52G C69U A106C C125U | -4.12
118 | U53G A137G | -2.32
119 | U53C G58A C99G | -0.95
120 | C54A G94U C105U | -2.47

Row | Variant | polymerase ribozyme fitness (log ratio)
121 | C54G C76A C93G C123U | ≤ -4.2
122 | U53A G71C G88A | ≤ -4.2
123 | U53C A97U C114G U145A | -3.74
124 | A52G G74C C87A A113U C125A G140U | ≤ -4.2
125 | U53A C75U G84C | -2.82
126 | U53G C69A C99U C118A | ≤ -4.2
127 | A52G G59A G92A | -3.59
128 | C54A A91G A120G | -3.57
129 | U53A U55A | -2.2
130 | U53G C93U | -1.92
131 | A52G G58U | -0.0148
132 | U53A G86C A91U | ≤ -4.2
133 | A52U C87A A97U U127C A142C | ≤ -4.2
134 | U53A A91G G126U G140U | ≤ -4.2
135 | U53A U56G A115U A120G | -2.77
136 | A52G G152C | -3.59
137 | A52U U53A C57A G81U G83C C103G G126A | ≤ -4.2
138 | U53G C79A C87A U102G | ≤ -4.2
139 | C54A C75U C93U | -2.29
140 | C54U G92U A147U | 0.0812
141 | C54A G59U A60C G83A C116A | -2.11
142 | C54A U102A | -2.71
143 | U53A A64G | -3.41
144 | U53A G74A U77A C96U G126C | ≤ -4.2

Row | Variant | polymerase ribozyme fitness (log ratio)
145 | A52U C79A A110U C116U A120U C131G | ≤ -4.2
146 | U53A U55A C95A A98G C123U G143C | -3.34
147 | A52U U109G | -3.48
148 | A52U U55A U56G A66G C99A C132U | ≤ -4.2
149 | U53G C75G C76U C96A A115C | ≤ -4.2
150 | U53G G59C U61A G88C G94U | ≤ -4.2
151 | U53G G83U G86A U104C | ≤ -4.2
152 | U53A G88U | ≤ -4.2
153 | C54G A89U C95U A97C | -2.48
154 | U53A A107U U144G | -2.6
155 | C54A G59A C87U | -1.95
156 | U53C C118U C129G G141A | ≤ -4.2
157 | A52G U53A G84A | -0.8
158 | U53G A60U C69U C131G | ≤ -4.2
159 | C54A U56A C85G U101C U134A U148C | ≤ -4.2
160 | A52G G86A C93A G143A | ≤ -4.2
161 | U53C A150G | -1.01
162 | A52G G84A G94U G143A | ≤ -4.2
163 | C54U C69G C85G | -3.9
164 | U53A C57G C95G | -4.01
165 | U53A G80C | ≤ -4.2
166 | A52G U77G A91C | ≤ -4.2
167 | C54A C95U A106C | -2.19
